# Article PMC3401468
# Read-outs that look alike come from different tables or passages of the source.
# T1: XPF-HLD (human, UniProt Q92889 12-672)
# T1 sequence: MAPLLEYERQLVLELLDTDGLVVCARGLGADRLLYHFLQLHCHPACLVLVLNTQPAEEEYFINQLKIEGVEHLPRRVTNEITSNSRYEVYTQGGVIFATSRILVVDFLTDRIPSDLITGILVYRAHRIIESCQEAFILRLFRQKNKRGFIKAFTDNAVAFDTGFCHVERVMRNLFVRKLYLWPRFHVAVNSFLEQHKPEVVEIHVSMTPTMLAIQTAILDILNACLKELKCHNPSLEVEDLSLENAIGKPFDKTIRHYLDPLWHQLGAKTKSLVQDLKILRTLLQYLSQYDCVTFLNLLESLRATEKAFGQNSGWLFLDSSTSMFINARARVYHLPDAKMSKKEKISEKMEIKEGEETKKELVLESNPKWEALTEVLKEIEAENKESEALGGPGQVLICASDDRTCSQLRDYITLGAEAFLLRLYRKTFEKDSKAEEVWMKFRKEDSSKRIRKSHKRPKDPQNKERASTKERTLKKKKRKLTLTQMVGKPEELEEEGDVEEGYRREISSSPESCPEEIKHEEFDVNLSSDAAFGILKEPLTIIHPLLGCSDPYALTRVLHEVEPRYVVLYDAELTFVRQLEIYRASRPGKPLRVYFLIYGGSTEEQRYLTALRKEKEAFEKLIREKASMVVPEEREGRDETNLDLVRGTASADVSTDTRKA
# T2: XPF;ERCC1 (human;human, UniProt Q92889;P07992 12-916;1-297, |)
# T2 sequence 1: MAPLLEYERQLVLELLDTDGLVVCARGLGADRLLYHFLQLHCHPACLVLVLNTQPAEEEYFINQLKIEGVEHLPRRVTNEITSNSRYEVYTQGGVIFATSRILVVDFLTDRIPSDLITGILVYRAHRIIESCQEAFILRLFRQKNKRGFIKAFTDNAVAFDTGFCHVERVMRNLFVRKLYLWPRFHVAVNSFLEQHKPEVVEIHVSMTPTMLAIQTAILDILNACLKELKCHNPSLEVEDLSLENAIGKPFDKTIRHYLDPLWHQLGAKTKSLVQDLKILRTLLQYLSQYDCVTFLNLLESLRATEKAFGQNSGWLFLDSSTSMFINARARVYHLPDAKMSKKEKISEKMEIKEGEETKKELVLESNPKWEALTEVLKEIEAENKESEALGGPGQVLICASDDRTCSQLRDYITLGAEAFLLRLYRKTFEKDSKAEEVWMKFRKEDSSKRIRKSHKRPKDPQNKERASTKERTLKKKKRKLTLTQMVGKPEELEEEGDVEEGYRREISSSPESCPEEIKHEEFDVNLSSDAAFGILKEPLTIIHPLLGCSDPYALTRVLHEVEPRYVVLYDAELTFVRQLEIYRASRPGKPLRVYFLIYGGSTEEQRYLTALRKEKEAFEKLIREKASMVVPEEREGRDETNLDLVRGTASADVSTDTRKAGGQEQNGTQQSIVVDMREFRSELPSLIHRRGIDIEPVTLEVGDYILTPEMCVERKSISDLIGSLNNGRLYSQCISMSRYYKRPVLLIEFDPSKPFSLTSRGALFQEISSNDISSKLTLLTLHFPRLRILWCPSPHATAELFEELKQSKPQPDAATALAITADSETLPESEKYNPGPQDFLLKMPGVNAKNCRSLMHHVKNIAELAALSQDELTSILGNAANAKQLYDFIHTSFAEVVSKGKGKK
# T2 sequence 2: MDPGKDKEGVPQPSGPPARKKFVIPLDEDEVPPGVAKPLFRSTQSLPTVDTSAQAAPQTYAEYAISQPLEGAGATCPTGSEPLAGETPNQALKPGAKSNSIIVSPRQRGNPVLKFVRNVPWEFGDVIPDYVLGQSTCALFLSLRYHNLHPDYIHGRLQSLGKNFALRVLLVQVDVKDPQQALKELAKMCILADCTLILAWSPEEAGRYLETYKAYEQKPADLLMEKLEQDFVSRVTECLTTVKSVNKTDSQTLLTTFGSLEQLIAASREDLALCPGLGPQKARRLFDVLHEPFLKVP
# Experiments:
# XPF-HLD [1] = target: T1, XPF-HLD; test: fluorescence polarization
# XPF-HLD [2] = target: T1, XPF-HLD; test: fluorescence polarization; remark: listed apart in the source
# XPF;ERCC1 = target: T2, XPF;ERCC1; test: SPR
# XPF-HLD [3] = target: T1, XPF-HLD; test: fluorescence polarization; remark: listed apart in the source
Binder,binding result (XPF-HLD [2]),Kd (XPF-HLD [3]),also measured
CAGCGCCTGGTTTTTTTTTTTTTTTTTTTTCCAGGCGCTG (structured_DNA) [Stem10-loop20 X=C Y=T],–,–,Kd (XPF-HLD [1]): 63 nM
CAGCGCGGGGTTTTTTTTTTTTTTTTTTTTCCCCGCGCTG (structured_DNA) [Stem10-loop20 X=G Y=G],binds,–,–
CAGCGCTTGGTTTTTTTTTTTTTTTTTTTTCCAAGCGCTG (structured_DNA) [Stem10-loop20 X=T Y=T],binds,–,–
"CAGCGCTCGGTTCCGAGCGCTG (structured_DNA) [Duplex with 2T loop (stem10-loop2), SPR]",–,–,binding result (XPF;ERCC1): no binding
GCGCTCGGCGTTTTT (ssDNA) [15-mer single strand (FP)],–,263 nM,–
CAGCGCTCGGTTCCGAGCGCTG (structured_DNA) [2T stem-loop duplex (FP)],–,217 nM,–
